The source of these data is article PMC7181051, “Probing the Protein-Protein Interaction between the ATRXADD Domain and the Histone H3 Tail” (Molecules, 2020).

Where no end group is shown, it is not given here. [ ]: non-standard residue; d: D form. Lys(Me3) = C[N+](C)(C)CCCC[C@H](N)C(=O)O

Sequences and labels used below:
B1: H3_(1-11)K9me3 peptide (peptide)
peptide: ARTKQTARKST
modifications: trimethyl-lysine at 9, printed K(me3)
notes: histone H3 tail; source: bought: GenScript
B2: H3_(1-11) A1L peptide (peptide)
peptide: LRTKQTAR[Lys(Me3)]ST
notes: histone H3 tail with A1 replaced; source: bought: GenScript
B3: H3_(1-11) A1V peptide (peptide)
peptide: VRTKQTAR[Lys(Me3)]ST
notes: as for B2
B4: H3_(1-16) peptide (peptide)
peptide: ARTKQTARKSTGGKAY
notes: as for B1
B5: H3_(1-10) peptide (peptide)
peptide: ARTKQTARKS
notes: as for B1
B6: H3_(1-11)K4me3K9me3 peptide (peptide)
peptide: ART[Lys(Me3)]QTAR[Lys(Me3)]ST
notes: as for B1

The target of the assay is T1, ADD domain of ATRX (ATRXADD) (UniProt P46100 159-296).
T1 construct: ATRX, N-terminal ADD (ATRX-DNMT3-DNMT3L) domain; plasmid pGEX-GP-2-ATRX ADD from Addgene; that it comes from the GST fusion and not from the His-tagged one is surmised; also called ATRX-DNMT3-DNMT3L domain; source: E. coli BL21, purified (spin column, on-column thrombin cleavage)
T1 sequence (looked up): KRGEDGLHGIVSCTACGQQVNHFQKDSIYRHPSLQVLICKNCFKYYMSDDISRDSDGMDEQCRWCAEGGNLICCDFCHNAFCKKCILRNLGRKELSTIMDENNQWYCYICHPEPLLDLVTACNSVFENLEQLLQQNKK
Description: fluorescence polarisation; competition: ATRXADD (5 μM) and H3_(1-15)K9me3-FAM (0.75 μM) incubated 15 minutes at room temperature, then unlabeled peptide at varying concentrations; PBS; 384-well plate. The settings on record: both partners purified.
For the molecule B1, the half-maximal inhibitory concentration (IC50) was 7.6 ± 1.4 µM.

Turning to B2, the half-maximal inhibitory concentration (IC50) worked out at 5.05 ± 0.7 µM. In the case of B3 it was 4.3 ± 0.8 µM. The result for B4 reads 85.8 ± 19.3 µM.

The molecule B5 came in with a half-inhibitory concentration (IC50) of 94.8 ± 4.6 µM.

B6 showed an IC50 of no less than 100 µM.
